Paper PMC3383001 (Cell, 2012)

B1: KASH1 peptide (Nesprin-1, residues 8769–8797) co-expressed with SUN2(522–717) (peptide)
peptide: not shown
B2: SUN2(522–717), minimal SUN domain of human SUN2 used for crystallography (domain or fragment, UniProt Q9UH99 522-717, looked up)
chain: GVTEEQVHHIVKQALQRYSEDRIGLADYALESGGASVISTRCSETYETKTALLSLFGIPLWYHSQSPRVILQPDVHPGNCWAFQGPQGFAVVRLSARIRPTAVTLEHVPKALSPNSTISSAPKDFAIFGFDEDLQQEGTLLGKFTYDQDGEPIQTFHFQAPTMATYQVVELRILTNWGHPEYTCIYRFRVHGEPAH
B3: KASH2 peptide (Nesprin-2, residues 6857–6885) co-expressed with SUN2(522–717) (peptide)
peptide: not shown
B4: His-SUN2(335–717), luminal domain of human SUN2 (predicted coiled-coil regions and SUN domain) (domain or fragment, UniProt Q9UH99 335-717, looked up)
chain: LVSRREAALKEDFRRETAARIQEELSALRAEHQQDSEDLFKKIVRASQESEARIQQLKSEWQSMTQESFQESSVKELRRLEDQLAGLQQELAALALKQSSVAEEVGLLPQQIQAVRDDVESQFPAWISQFLARGGGGRVGLLQREEMQAQLRELESKILTHVAEMQGKSAREAAASLSLTLQKEGVIGVTEEQVHHIVKQALQRYSEDRIGLADYALESGGASVISTRCSETYETKTALLSLFGIPLWYHSQSPRVILQPDVHPGNCWAFQGPQGFAVVRLSARIRPTAVTLEHVPKALSPNSTISSAPKDFAIFGFDEDLQQEGTLLGKFTYDQDGEPIQTFHFQAPTMATYQVVELRILTNWGHPEYTCIYRFRVHGEPAH

Experiments:
[1] = molecular target: B2; experiment: crystal structure
crystal structure = molecular target: the molecule itself; experiment: crystal structure
[2] = molecular target: B2; experiment: crystal structure; remark: listed apart in the source
AUC = molecular target: the molecule itself; experiment: AUC

## B1
[1]
  binding result: binds

## B2
Crystal structure
  stoichiometry N: 3

## B3
[2]
  stoichiometry N: 3 KASH2 peptides per SUN2 trimer

## B4
AUC
  stoichiometry N: 3
